The DeepSol protein solubility set

Test: soluble on expression in E. coli; label from the status in PepcDB or PDB records

Sequence | soluble on expression in E. coli
MSRSGEFCPRCGDEIPEGTDERPELAGAGGQRNSEHVLCDACYFEEFDLVDAPDTIQVRVCSRCGAVHKGNRWVDIGAEDYTDIAVEQVSEALGIHVDAQSVAWQVAPEQLDKNNIRMHAEFSGVIRGTPVTEEVTVPVRISRQTCKRCGKIAGGSFASIVQVRADGRDPTDDERERAEEIAQEYVAAREETGDRNAFITETKSVDDGLDMKISTNQMGLGIAKRITAQLGGSYSDSRRLISEDEDGQELYRMTYAVRLPRYRQGEVIDPEDGDGPVLVRSVQGNLKGVRLATGEDYEASFEAGETPDARRLGFREDGQQTTLVAIEDERAVQVLDPETFESKTVPRPDYLDIDADEVPVLKSHAGLHILPAADADTDELEHHHHHH | soluble
MKTKPQAPHVDFYEKSELLHFLDCASKHENPQAFMFFRLLAFTGLRRGEALALQWSDINFETNELTVNKTQAVGKRWRTIIQTPKTNTSYRTIVLDPDTAQWLHKWKMTQARQCFELGFNANDPSQLVFTNQQNKLMSPSTVNYFNWSICKKYGLRHIKIHAFRHTFCTLAFEAHAGINEVSKTLGHADLKITEQIYLHVTKKQKNETASKLARYMSELLEHHHHHH | soluble
MSRPAASLGLMRMIEAVPDRLDGSPRQLRRFWSDEFKETAVEQACQPGVNMSAVARQIGILPSQLYRWRRELLASDKPGEAPAAVDPQSVAPDANPVVEIVIDGIVVRADRHIEEAHLQRVIRAVRSALEHHHHHH | soluble
MSLSGKIRVDIPPCLANSLIMPRLPTFLHQYPGIALELCSSDRQVDLLREDFDCVVRTEPLHAPGILTRPLGKLRRVNCASPQYLARFGYPENLDDLASHAMVHYSLTPGVSSPGFAFETPHGMQWVKTGGMLTVNSTETWHTACLAGLGIIQTPRIAVREALRAGTLIEILPQYRAAPLPVTLHYPHRRNLSRRVHLFMVWLTETIKEAAEGHHHHHH | not soluble
MGSDKIHHHHHHMLWFKNLMIYRLSQDSVLSKDNVLSTDEMEKRLSAFAFTPCGSQDMMKTGWVSPMGSHSDALTHVVNGQIVICVRKEEKILPSPVIKQTLQAKIERLEAEQHRKLKKTEKDSLKDEVLHSLLPRAFSRLSQVWLWIDTVNGLIMVDAASAKKAEDTLALLRKTLGSLPVVPLTMENPIELTLTEWVRSGEPAAGFALQDEAELKAILEDGGVIRCKKQDLVCDEIAVHIEAGKLVTKLALDWQERIQLILSDDGSVKRLKFSDTLREQNDDIDREDFAQRFDADFILMTSELAALIANLIEALGGEAQR | not soluble
MGSDKIHHHHHHMRKILLPYPAGCATGTFVRRVKRFSVEMTRDGESVWVHSNNSGSMLGLLRPGATMLASPAANPDRKLAWTHEAMRCHGDGPQGFWVGVNTSVPNRMVEAAFHAGRLPWAQGYDTFRRERKRGDSRLDARLDGPGLPTLWVECKNVTMVEDDVACFPDAVTERGSKHLREMMDIVSRGERAAMFYLVQRPDGLCFGPADVIDPQYAALFWEAVDAGVEMYPHRGIVSPVGIDLSGVLPLTRCR | not soluble
MHHHHHHHHHHISSASGESQMSLDEIEDVYHTRPGYRPEEYRWGQGGAKIIDYHIQSAGVDFPPSLTGNQQTDFLMKVVFEYDFDCVVPGILIKTLDGLFLYGTNSFLASEGRENISVSRGDVRVFKFSLPVDLNSGDYLLSFGISAGNPQTDMTPLDRRYDSIILHVTKSMDFWGVIDLKSSFTSYQ | soluble
MINPIASLSPLDGRYAQSVEALRPIFSEYGLMKARVKVELNWLKALAAEPKIAEVPPFSAETLAEIDTVIENFSLEDAAAVKAIEATTNHDVKAIEYWLKKRFAEVPEVAAVSEFIHFACTSEDINNLSHALMLQEAREAVLLPKLAEIIEKLTAMAHDLAAVPMMSRTHGQPATPTTLGKETANVVYRLQRQFKNLQAQEFLGKINGAVGNYNAHMVAYPDVDWETHCRNFVEISLGLTFNPYTIQIEPHDYMAEFFQTLSRINTILIDFNRDVWGYISLGYFKQKVKAGEVGSSTMPHKVNPIDFENSEGNLGMANAVLGFLSEKLPISRWQRDLTDSTVLRNMGVGVGYAVLGFAAHLRGLNKLEPNPAALAADLDATWELLAEPIQTVMRRYGVANPYEKLKDLTRGKGGITPEVLKGFIGLLEIPAEAKAKLLELTPALYVGKAEALAKRI | not soluble
MLKQSLATLLLCSTLSPLAVVLPTLAGPGDGGMGWGAKVENLNLTPEQRQNLQAIRQRYQSQIEETRTQLRTAKDELRRLMASNASDEQIRAKHAQVQQLQQKLATLRFESMLATRKILTPEQRQALAERMQNRQGQRRLERLEHHHHHH | soluble
MDQLREIVDPDQPQTLRQQAEGWGKMAELLREYSLLLDERLRLVEHSWTGEAATMYFDEVRRVQEYIEDSAERATANCGLWCVIATMAGIAKHDVSHIHQLWKDLDAATDAVGLGFVAGVFGADEALEDFQRKPFDAASRQIMEVTMSAADESYARMRDFEEFEPPPSVDDSGLELQSVSTPAPPSGTAVAPPSTTVTATPAVPLGPTAPRPVVPSVIGSRPGMMPMARPMMGPGHTVPPVIGQRDGGSAQPGATGRLIGRDGVVRVTPDVDLRDPNASRAHYGGDDVNRGVIKSQNPQRVADEAQFKLEEEVRRLRERAYAHRVETLTADHSQYAIPGIVGDDSAWDTKAHDPGPVAFDVRRLRHRPVVDDWTLAVRRH | not soluble
YNSGKLEEFVQGNLERECMEEKCSFEEAREVFENTERTTEFWKQYEEEEEE | soluble
MVAVKREFELSHVFKDVSKLEDGNTFYGPEEEHFNVQWRIVLIHQKEDVAVFLRYLHPKNEQAPWKIDSEFTLKLSNSSGKSVTKTGSDIWNSYDALGFCDVFEWDSLLKDYLIDDVIIIEVAVKIKNMSGIPKKKLKSFERSNEEFSDVILAVGDKKFFVLRKFLASHSTYFETLLLGNFAEADKSEVKLQDINSTDFQNLMEVRYGEYAIDEETVDGILHLAHLYDMPFPIKRCEEFLVDSSEKSTKEKLKVAKKYQLENLKASCLAKINTLEEIKAALAGDLDEMDPSVVHALFRKSLALH | not soluble
GKKTRSVKSCVGKEFCRFGTQYTTRLGIRLEKTFEYIDTPHKFKMGVSGCPRSCVESGVKDFGVISVENGYQIFIGGNGGTDVTVGKLLTTVETEDEVIQLCGALMQYYRETGVYAERTAPWLERMGFENVKNVLLNQ | not soluble
MSHHRSAFFISDRTGITAESLGHTLLTQFDALDFQRETVPFVDTVEKARALAERISEIAERDHLRPLVFTSIVNPEVREALRLNNVVLIDFFESFIGHLEIELGQKATLTVGKAHGMVNEEKYDHRIEAVNFSLNHDDGVKLKDLHEADVILVGVSRSGKTPTCLYLALQYGIRAANYPLTPEDLGSPTLPKMLLPFKDKMFGLTIDPNRLHHIRSERRPDSKYASMDNCRREVNEAESMFRHHGVPFISTTHKSIEEIASTIMHKAALGRKFLEHHHHHH | soluble
MAHHHHHHMSRNPSNSDAAHAFWSTQPVPQTEDETEKIVFAGPMDEPKTVADIPEEPYPIASTFEWWTPNMEAADDIHAIYELLRDNYVEDDDSMFRFNYSEEFLQWALCPPNYIPDWHVAVRRKADKKLLAFIAGVPVTLRMGTPKYMKVKAQEKGEGEEAAKYDEPRHICEINFLCVHKQLREKRLAPILIKEATRRVNRTNVWQAVYTAGVLLPTPYASGQYFHRSLNPEKLVEIRFSGIPAQYQKFQNPMAMLKRNYQLPSAPKNSGLREMKPSDVPQVRRILMNYLDSFDVGPVFSDAEISHYLLPRDGVVFTYVVENDKKVTDFFSFYRIPSTVIGNSNYNLLNAAYVHYYAATSIPLHQLILDLLIVAHSRGFDVCNMVEILDNRSFVEQLKFGAGDGHLRYYFYNWAYPKIKPSQVALVML | not soluble
MAYPVSPIAGRRSNWRSFAASLNLEDGPASSDSTSSPSEQTSDGGEVYGDPSENLNSRKLKSDELKSLLADSERSKLLKKLSEANQYNRFLKRQLQMKDNDVVKFKSELAVMELELQALVALAEEIANFDVPSGSRKINGKYIQSHLLTRLEAVHDKVMEQIKDVDSLKHQEISVFWVGIAENVQIMGSFDGWSQGEAMSMEYSGYQARFSATLNLRPGRYEIKFLVDGEWRLSLEYPIDGEGSMQNNILVVN | not soluble
MKSKRLSLVLMTAALGLTACATTQSPTGRSQTLLYSSSQMQQMGDASFAEMKKQQKISGNKKLTQYVNCVANRVTAVLPDQTQKWDVVLFDSEQVNAFALPGGHIGVYTGLLKVASTPDQLATVLGHEVAHVLAQHGNEQVSRSQMTGMGMQIADAALGAGGVSNRDLYMSALGLGAQVGVILPFGRAQESEADIMGLELMARAGFDPAQSVVLWQNMSKAGGGKGPELLSTHPSNNNRIAQLEQLQGQMQPLYQSAKANIKNQCAAPKLEHHHHHH | not soluble
MTEFDNLTWLHGKPQGSGLLKANPEDFVVVEDLGFTPDGEGEHILLRILKNGCNTRFVADALAKFLKIHAREVSFAGQKDKHAVTEQWLCARVPGKEMPDFSAFQLEGCKVLEYARHKRKLRLGALKGNAFTLVLREISDRRDVETRLQAIRDGGVPNYFGAQRFGIGGSNLQGALRWAQSNAPVRDRNKRSFWLSAARSALFNQIVHQRLKKPDFNQVVDGDALQLAGRGSWFVATSEELPELQRRVDEKELMITASLPGSGEWGTQRAALAFEQDAIAQETVLQSLLLREKVEASRRAMLLYPQQLSWNWWDDVTVELRFWLPAGSFATSVVRELINTMGDYAHIAELEHHHHHH | soluble
MAESPSQSDAQLVAHQSPGQQADSDLTSLVFDYKSVLCVYFFSHLLTVLKTNAIAEMSQQVQMGMENMLKMVYEIDQNSVGIKEEIEKSKDFAMEKKRILEEEKDQFQKAAYTILDMLSNSRG | soluble
MGSDKIHHHHHHMLSRTAENLFWLARYVERAEYLARTIEATLRVTALPSAYIGKTNEWDSALLTAGVGGNFYNFHDEANEQSVVDYLAFSSDNPSSIRNCIENARLNARSVRTALTGEMWDTLNSAWIELQEAWGKGTKTREDLTRFLRFVQEISLRFDGSAYRTMLRNDAYWFSRLGLHLERADNTARILDVKYHVLLPEEEHVGGPLDYYQWSSILRSVSALTAYHWVYRETLKPWLIADLLILNDTLPRSLASCYGNLTRNLDNIGVAYGRHGAAQRHARGVRNRLEHSKMDDIFQRGVHEFIQEFIADNARLGEVIAKQYLI | not soluble
MGSDKIHHHHHHMILSHFSTKVVTFFGSRFKAVRGVDLKRYRKELKLKQQELASKLGIERSLISKIESGKRVISKELEQKIINVLNLDGGHASVEAKIDFLRIRFKTLDVRTVIEKLLHMDMNWFTHESRGFYHYTETFSYSSIRIFRNPENVNMGIMLDLSGEGCRQLEEIFEEDNNRSWTEFFRSLYDDDIFGQGILVDTKITRIDIALDELIVKGQENFDLYVLKEKMEQGLVDTTFKNFDFSGGFVYENKKMVNKGLSLYFGSRQSPLYFNFYQKDYELARKESMSVEEAREKHEIKNRYEIRLSDEKAFLFVEYFLSSGESLDWLVKEIINQSLTVYDIEDDMKVYCKSWHDVVDKLEGLKLSVQGEKPSIEKTLRWLSNYLAPSLKMIKEIDNLLGTNELMERIDLAELKEKHEEIIEMVSVDAKDLLFTNRDNKSVRSYMEREFELEEMYPF | not soluble
